Test results: patent US20090022728A1 (RINAT NEUROSCIENCE, published 2009)
Blank lines part the entries; values can stand above or below the binder they belong to. Where no end group is shown, it is not given here.

Key:
[1] = target: T1, N-biotinylated Aβ1-43 peptide (N-biotinylated); assay: SPR, Fab over N-biotinylated peptide on SA chip
T1 construct: captured on SA chip
Procedure: (§1) Affinities of 7G10 antibody were determined using BIAcore3000® as described previously in Example 1. N-biotinylated Aβ1-40, 1-42, and 1-43 were captured on SA chip. Threefold dilution series of anti-Aβ1-40 Fabs, anti-Aβ1-42 Fabs, and anti-Aβ1-43 Fabs respectively, were injected starting with a ⅙ dilution of the 7G10 stock listed above. The chip was regenerated with an 18 sec pulse of 6% EtOH+6 mM NaOH.

[2] = target: T2, biotinylated Aβ1-42 peptide (biotinylated (N-biotinylated in Example 7)); assay: SPR, Fab over N-biotinylated peptide on SA chip
T2 construct: captured on streptavidin chip; also called N-biotinylated Aβ1-42
Procedure: as §1

[3] = target: T3, biotinylated Aβ1-40 peptide (biotinylated (N-biotinylated in Example 7)); assay: SPR, Fab over N-biotinylated peptide on SA chip
T3 construct: captured on streptavidin (SA) chip; also called Biotinylated Aβ peptide 1-40; Aβ1-40 on SA chip
Procedure: as §1

[4] = target: T4, biotinylated Aβ 27-41 peptide with C-terminal glycine (also: biotinylated, site not given here); assay: ELISA on biotinylated peptides on streptavidin plates
T4 peptide: NKGAIIGLMVGGVVIG
Procedure: (§2) ELISA was used for measuring binding of antibody 6G and variants to biotinylated Aβ peptides. NUNC maxisorp plates were coated with 6 ug/ml of streptavidin (Pierce, 21122) in PBS pH 7.4 for more than 1 h at 4° C. Plates were blocked with 1% BSA in PBS buffer pH 7.4. After washing, biotinylated Aβ peptides in PBS pH 7.4 were incubated 1 hour at room temperature. Primary antibody (from cell supernatants, serum containing anti-Aβ antibody, or purified full antibody or Fabs at desired dilution) was incubated with the immobilized Aβ peptides for 1 h at room temperature. After washing, plates were incubated with secondary antibody, a HRP conjugated goat anti-human kappa chain antibody (MP Biomedicals, 55233) at 1:5000 dilution. After washing, bound secondary antibody was measured by adding TMB substrate (KPL, 50-76-02, 50-65-02). HRP reaction was stopped by adding 1M phosphoric acid and absorbance at 450 nm was measured.
(§3) Epitope mapping of antibody 6G was performed by ELISA assay. Biotinylated 15-mer or 10-mer of various Aβ peptides (these peptides have glycine added to the C-terminal end) were immobilized on streptavidin coated plates. Antibody 6G (from 2.5 ug/ml to 10 ug/ml) was incubated with the immobilized peptides and binding was measured as described above.

[5] = target: T5, biotinylated Aβ 26-35 peptide with C-terminal glycine (also: biotinylated, site not given here); assay: as above
T5 peptide: SNKGAIIGLMG
Procedure: as §2, §3

[6] = target: T6, biotinylated Aβ 26-40 peptide with C-terminal glycine (also: biotinylated, site not given here); assay: as above
T6 peptide: SNKGAIIGLMVGGVVG
Procedure: as §2, §3

[7] = target: T7, biotinylated Aβ 19-33 peptide with C-terminal glycine (also: biotinylated, site not given here); assay: as above
T7 peptide: FFAEDVGSNKGAIIGG
Procedure: as §2, §3

[8] = target: T8, biotinylated Aβ 24-33 peptide with C-terminal glycine (also: biotinylated, site not given here); assay: as above
T8 peptide: VGSNKGAIIGG
Procedure: as §2, §3

[9] = target: T9, Aβ28-40-NH2 peptide (carboxy-terminal amidated); assay: SPR, peptide flowed over 6G mAb on CM5 chip; reference Aβ1-40
T9 peptide: KGAIIGLMVGGVV-NH2

Aβ28-40 peptide [10] = target: T10, Aβ28-40 peptide; assay: as above
T10 peptide: KGAIIGLMVGGVV

Aβ1-39 peptide [11] = assay: as above
Aβ1-38 peptide [12] = assay: as above
Aβ1-42 peptide [13] = target: T11, Aβ1-42 peptide; assay: as above
T11 construct: also called 1-42 (WT)

Aβ22-35 peptide [14] = target: T12, Aβ22-35 peptide; assay: as above
T12 peptide: EDVGSNKGAIIGLM

Aβ1-36 peptide [15] = assay: as above
Aβ17-42 peptide [16] = target: T13, Aβ17-42 peptide; assay: as above
T13 peptide: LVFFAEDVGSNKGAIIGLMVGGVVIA

Aβ1-37 peptide [17] = assay: as above
Aβ17-40 peptide [18] = target: T14, Aβ17-40 peptide; assay: as above
T14 peptide: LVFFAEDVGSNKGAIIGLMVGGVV

Aβ28-42 peptide [19] = target: T15, Aβ28-42 peptide; assay: as above
T15 peptide: KGAIIGLMVGGVVIA

Aβ1-16 peptide = target: T16, Aβ1-16 peptide; assay: ELISA on immobilized Aβ peptides
T16 peptide: DAEFRHDSGYEVHHQK
Procedure: (§4) To determine the epitope on Aβ peptide that is recognized by antibody 6G, ELISA binding analysis was used. Various Aβ peptides (Global Peptide Services, CO) was immobilized on a ELISA plate. The binding of 6G full antibody (at 20 nM) to the immobilized Aβ was determined by ELISA as described above. […] Thus, antibody 6G binds to the C-terminus of various truncated Aβ peptide, for example, 22-35, 1-38, 1-40, 1-42, and 1-43.

Aβ33-40 peptide = target: T17, Aβ33-40 peptide; assay: ELISA on immobilized Aβ peptides
T17 construct: also called C-terminal peptide (33-40) of Aβ1-40
T17 peptide: GLMVGGVV
Procedure: as §4

Aβ1-43 peptide = target: T18, Aβ1-43 peptide; assay: SPR, peptide flowed over 6G mAb on CM5 chip
T18 construct: also called 1-43 (WT)

[20] = target: T9, Aβ28-40-NH2 peptide (carboxy-terminal …); assay: SPR, peptide flowed over 6G mAb on CM5 chip
Aβ28-40 peptide [21] = target: T10, Aβ28-40 peptide; assay: SPR, peptide flowed over 6G mAb on CM5 chip
Aβ1-39 peptide [22] = assay: SPR, peptide flowed over 6G mAb on CM5 chip
Aβ1-38 peptide [23] = assay: SPR, peptide flowed over 6G mAb on CM5 chip
Aβ1-42 peptide [24] = target: T11, Aβ1-42 peptide; assay: SPR, peptide flowed over 6G mAb on CM5 chip
Aβ22-35 peptide [25] = target: T12, Aβ22-35 peptide; assay: SPR, peptide flowed over 6G mAb on CM5 chip
Aβ1-28 peptide = assay: SPR, peptide flowed over 6G mAb on CM5 chip
Aβ1-36 peptide [26] = assay: SPR, peptide flowed over 6G mAb on CM5 chip
Aβ17-42 peptide [27] = target: T13, Aβ17-42 peptide; assay: SPR, peptide flowed over 6G mAb on CM5 chip
Aβ1-37 peptide [28] = assay: SPR, peptide flowed over 6G mAb on CM5 chip
Aβ17-40 peptide [29] = target: T14, Aβ17-40 peptide; assay: SPR, peptide flowed over 6G mAb on CM5 chip
Aβ1-40 peptide [30] = target: T19, Aβ1-40 peptide; assay: SPR, peptide flowed over 6G mAb on CM5 chip
T19 construct: synthetic peptide, not biotinylated; also called 1-40 (WT); beta amyloid 1-40

Aβ28-42 peptide [31] = target: T15, Aβ28-42 peptide; assay: SPR, peptide flowed over 6G mAb on CM5 chip
Aβ1-40 peptide [32] = target: T19, Aβ1-40 peptide; assay: SPR, peptide flowed over 6G mAb on CM5 chip; the reference itself

Aβ1-37 peptide, sequence (peptide, as listed by the source): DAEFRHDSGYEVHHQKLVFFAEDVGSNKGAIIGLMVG
Aβ1-39 peptide, sequence (peptide, as listed by the source): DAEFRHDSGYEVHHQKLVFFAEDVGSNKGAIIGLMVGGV
Aβ1-38 peptide, sequence (peptide, as listed by the source): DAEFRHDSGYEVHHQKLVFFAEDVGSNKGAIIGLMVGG
Aβ1-36 peptide, sequence (peptide, as listed by the source): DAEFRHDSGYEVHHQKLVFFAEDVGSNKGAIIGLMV
Aβ1-28 peptide, sequence (peptide, as listed by the source): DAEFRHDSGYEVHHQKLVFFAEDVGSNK
T18 sequence (peptide, as listed by the source): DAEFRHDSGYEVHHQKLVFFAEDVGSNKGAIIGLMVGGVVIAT

Kd [1]: 41 nM | Kd [2]: 37.6 nM | binding result [3]: no binding
B1: murine antibody 7G10 (Fab) (Fab, V domains shown)
VH: EVKLVESGGDLVKPGGSLKLSCAASGFTFSTYAMSWIRQTPEKRLEWVASIGNSSRTYYPDSVKGRFTISRDNAGSILYLQMSSLRSEDTAIYYCARGEDGNYAWFTYWGQGTQVTVS
VL: DIVLTQSPATLSVTPGDSVSLSCRASQSVKNNLHWYQQKSHESPRLLIKYTFQSMSGIPSRFSGSGSGTDFTLIINSVETEDFGMYFCQQSNRWPLTFGAGTKLEL
notes: Fab was injected in the Biacore assay; also called m7G10

koff Aβ peptide/koff Aβ1-40 (fold loss of affinity) [9]: 27.4 fold | koff Aβ peptide/koff Aβ1-40 (fold loss of affinity) (Aβ28-40 peptide [10]): 4.8 fold | koff Aβ peptide/koff Aβ1-40 (fold loss of affinity) (Aβ1-39 peptide [11]): 60 fold | koff Aβ peptide/koff Aβ1-40 (fold loss of affinity) (Aβ1-38 peptide [12]): 70.4 fold | koff Aβ peptide/koff Aβ1-40 (fold loss of affinity) (Aβ1-42 peptide [13]): 14.4 fold | koff Aβ peptide/koff Aβ1-40 (fold loss of affinity) (Aβ22-35 peptide [14]): 216 fold | koff Aβ peptide/koff Aβ1-40 (fold loss of affinity) (Aβ1-36 peptide [15]): 155 fold | koff Aβ peptide/koff Aβ1-40 (fold loss of affinity) (Aβ17-42 peptide [16]): 352 fold | koff Aβ peptide/koff Aβ1-40 (fold loss of affinity) (Aβ1-37 peptide [17]): 113 fold | koff Aβ peptide/koff Aβ1-40 (fold loss of affinity) (Aβ17-40 peptide [18]): 1.6 fold | koff Aβ peptide/koff Aβ1-40 (fold loss of affinity) (Aβ28-42 peptide [19]): 25.5 fold | binding result (Aβ1-16 peptide): no binding (tested: 20 nM) | binding result (Aβ33-40 peptide): no binding (tested: 20 nM) | binding result (Aβ1-43 peptide): binds | koff [20]: 0.00362 s⁻¹ | koff (Aβ28-40 peptide [21]): 0.00064 s⁻¹ | koff (Aβ1-39 peptide [22]): 0.00792 s⁻¹ | koff (Aβ1-38 peptide [23]): 0.0093 s⁻¹ | koff (Aβ1-42 peptide [24]): 0.0019 s⁻¹ | koff (Aβ22-35 peptide [25]): 0.0285 s⁻¹ | binding result (Aβ1-28 peptide): no binding | koff (Aβ1-36 peptide [26]): 0.0205 s⁻¹ | koff (Aβ17-42 peptide [27]): 0.0465 s⁻¹ | koff (Aβ1-37 peptide [28]): 0.0149 s⁻¹ | koff (Aβ17-40 peptide [29]): 0.000215 s⁻¹ | koff (Aβ1-40 peptide [30]): 0.000132 s⁻¹ | koff (Aβ28-42 peptide [31]): 0.00337 s⁻¹ | koff Aβ peptide/koff Aβ1-40 (fold loss of affinity) (Aβ1-40 peptide [32]): 1 fold
B2: antibody 6G (full monoclonal antibody) (antibody, human IgG2, kappa, V domains shown)
VH: QVQLVQSGAEVKKPGASVKVSCKASGYTFTTYAIHWVRQAPGQGLEWMGFTSPYSGVSNYNQKFKGRVTMTRDTSTSTVYMELSSLRSEDTAVYYCARFDNYDRGYVRDYWGQGTLVTVSS
VL: DIVMTQSPDSLAVSLGERATINCRASESVDNDRISFLNWYQQKPGQPPKLLIYAATKQGTGVPDRFSGSGSGTDFTLTISSLQAEDVAVYYCQQSKEFPWSFGGGTKVEIKR
notes: human IgG2a constant region with A330P331 to S330S331; human kappa light chain; also called 6G full antibody; 6G monoclonal antibody
binding result [4]: no binding (tested: 2.5 ug/ml to 10 ug/ml) | binding result [5]: no binding (tested: 2.5 ug/ml to 10 ug/ml) | binding result [6]: no binding (tested: 2.5 ug/ml to 10 ug/ml) | binding result [7]: no binding (tested: 2.5 ug/ml to 10 ug/ml) | binding result [8]: no binding (tested: 2.5 ug/ml to 10 ug/ml)
